Assay results as given in patent publication US20180057604A1 (Genentech, published 2018).
Changes are numbered by the printed parent chain. Names may count otherwise. Like-named read-outs stand apart in the source and are kept apart here. Blank lines part the entries; values can stand above or below the binder they belong to.

Tests used:
[1] = biological target: T1, BACE1 in primary mouse cortical neurons (mouse, UniProt P56818 46-501); assay: cell-based or functional assay
[2] = biological target: T2, human BACE1 (R&D Systems) (human, UniProt P56817); assay: SPR (Biacore)
T2 construct: recombinant, commercial (R&D Systems)
T2 sequence (P56817 22-457 limits assumed): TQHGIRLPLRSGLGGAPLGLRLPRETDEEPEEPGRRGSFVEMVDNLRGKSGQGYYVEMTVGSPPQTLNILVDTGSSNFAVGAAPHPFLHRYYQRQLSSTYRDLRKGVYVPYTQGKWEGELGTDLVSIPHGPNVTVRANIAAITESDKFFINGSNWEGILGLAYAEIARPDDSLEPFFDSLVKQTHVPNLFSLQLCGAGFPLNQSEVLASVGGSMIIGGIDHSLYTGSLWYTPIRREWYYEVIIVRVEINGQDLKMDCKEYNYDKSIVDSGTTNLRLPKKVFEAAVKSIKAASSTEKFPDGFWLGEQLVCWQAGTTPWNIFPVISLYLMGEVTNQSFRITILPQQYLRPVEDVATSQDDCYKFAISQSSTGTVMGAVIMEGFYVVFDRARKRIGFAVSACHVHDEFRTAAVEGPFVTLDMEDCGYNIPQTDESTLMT

murine BACE1 ECD [3] = assay: cell-based or functional assay
human BACE1 ECD [4] = assay: cell-based or functional assay
murine BACE1 ECD [5] = biological target: T3, murine BACE1 ECD; assay: Octet, pH 7.5
T3 construct: analyte of the Octet assay (200 nM) and enzyme of the first short substrate assay
T3 sequence (single chain, as listed by the source limits assumed): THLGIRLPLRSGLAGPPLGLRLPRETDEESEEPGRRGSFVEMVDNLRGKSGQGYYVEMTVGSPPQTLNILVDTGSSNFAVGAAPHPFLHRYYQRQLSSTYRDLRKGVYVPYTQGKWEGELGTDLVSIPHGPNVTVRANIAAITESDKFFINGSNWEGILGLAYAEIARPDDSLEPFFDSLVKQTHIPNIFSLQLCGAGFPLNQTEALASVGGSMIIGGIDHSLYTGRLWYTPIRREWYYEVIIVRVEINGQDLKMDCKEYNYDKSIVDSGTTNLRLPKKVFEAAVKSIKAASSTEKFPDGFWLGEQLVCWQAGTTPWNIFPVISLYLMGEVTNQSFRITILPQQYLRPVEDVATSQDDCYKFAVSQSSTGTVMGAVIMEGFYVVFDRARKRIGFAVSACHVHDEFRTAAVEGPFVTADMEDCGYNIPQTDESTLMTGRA

human BACE1 ECD [6] = biological target: T4, human BACE1 ECD; assay: Octet, pH 7.5
T4 construct: analyte of the Octet assay (200 nM) and enzyme of the first short substrate assay; also called human BACE1 extracellular domain
T4 sequence (single chain, as listed by the source limits assumed): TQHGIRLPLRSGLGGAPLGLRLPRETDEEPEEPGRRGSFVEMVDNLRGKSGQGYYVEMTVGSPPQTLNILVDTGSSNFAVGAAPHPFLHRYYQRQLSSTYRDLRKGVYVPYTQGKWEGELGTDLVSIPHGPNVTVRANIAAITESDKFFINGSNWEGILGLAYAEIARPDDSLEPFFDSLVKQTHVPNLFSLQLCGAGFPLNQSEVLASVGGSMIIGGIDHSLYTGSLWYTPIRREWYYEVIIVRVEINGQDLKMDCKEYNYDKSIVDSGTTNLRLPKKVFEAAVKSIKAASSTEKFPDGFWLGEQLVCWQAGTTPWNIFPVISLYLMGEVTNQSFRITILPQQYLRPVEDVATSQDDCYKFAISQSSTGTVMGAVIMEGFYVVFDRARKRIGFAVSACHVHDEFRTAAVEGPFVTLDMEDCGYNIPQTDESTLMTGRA

murine BACE1 ECD [7] = biological target: T3, murine BACE1 ECD; assay: Octet, pH 5.0, second run
human BACE1 ECD [8] = biological target: T4, human BACE1 ECD; assay: Octet, pH 5.0, second run
[9] = biological target: T5, BACE1 (HTRF long substrate and FRET short substrate assays of Example 9D); assay: cell-based or functional assay
murine BACE1 ECD [10] = biological target: T3, murine BACE1 ECD; assay: Octet, pH 5.0
human BACE1 ECD [11] = biological target: T4, human BACE1 ECD; assay: Octet, pH 5.0
[12] = biological target: T2, human BACE1 (R&D Systems); assay: SPR (Biacore), second run
murine BACE1 ECD [13] = biological target: T3, murine BACE1 ECD; assay: Octet, pH 7.5, second run
human BACE1 ECD [14] = biological target: T4, human BACE1 ECD; assay: Octet, pH 7.5, second run
[15] = biological target: T1, BACE1 in primary mouse cortical neurons; assay: cell-based or functional assay; remark: listed apart in the source
[16] = biological target: T2, human BACE1 (R&D Systems); assay: SPR (Biacore); remark: listed apart in the source
murine BACE1 ECD [17] = biological target: T3, murine BACE1 ECD; assay: Octet, pH 7.5; remark: listed apart in the source
human BACE1 ECD [18] = biological target: T4, human BACE1 ECD; assay: Octet, pH 7.5; remark: listed apart in the source
murine BACE1 ECD [19] = biological target: T3, murine BACE1 ECD; assay: Octet, pH 5.0; remark: listed apart in the source
human BACE1 ECD [20] = biological target: T4, human BACE1 ECD; assay: Octet, pH 5.0; remark: listed apart in the source
murine BACE1 ECD [21] = biological target: T3, murine BACE1 ECD; assay: Octet, pH 7.5; remark: listed apart in the source
human BACE1 ECD [22] = biological target: T4, human BACE1 ECD; assay: Octet, pH 7.5; remark: listed apart in the source
[23] = biological target: T5, BACE1 (HTRF long substrate and FRET …); assay: cell-based or functional assay; remark: listed apart in the source
murine BACE1 ECD [24] = biological target: T3, murine BACE1 ECD; assay: Octet, pH 5.0; remark: listed apart in the source
human BACE1 ECD [25] = biological target: T4, human BACE1 ECD; assay: Octet, pH 5.0; remark: listed apart in the source
[26] = biological target: T2, human BACE1 (R&D Systems); assay: SPR (Biacore); remark: listed apart in the source
[27] = biological target: T6, human TfR extracellular domain with N-terminal His tag (human, UniProt P02786 89-760); assay: SPR, TfR captured by anti-His, Fab injected;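 note: single cycle kinetics with a Fab dilution series, fitted by a one-to-one Langmuir model or a steady state model, KD taken as koff over kon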
T6 construct: Biotinylated in some assays; also called huTfR; HuTfR

[28] = biological target: T7, cyno TfR extracellular domain (analogous construct to human TfR ecd) (cynomolgus monkey, UniProt Q5RDH6 87-760 (Pongo abelii entry)); assay: SPR, TfR captured by anti-His, Fab injected;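 note: single cycle kinetics with a Fab dilution series, fitted by a one-to-one Langmuir model or a steady state model, KD taken as koff over kon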
T7 construct: also called cynoTfR ecd
T7 chain: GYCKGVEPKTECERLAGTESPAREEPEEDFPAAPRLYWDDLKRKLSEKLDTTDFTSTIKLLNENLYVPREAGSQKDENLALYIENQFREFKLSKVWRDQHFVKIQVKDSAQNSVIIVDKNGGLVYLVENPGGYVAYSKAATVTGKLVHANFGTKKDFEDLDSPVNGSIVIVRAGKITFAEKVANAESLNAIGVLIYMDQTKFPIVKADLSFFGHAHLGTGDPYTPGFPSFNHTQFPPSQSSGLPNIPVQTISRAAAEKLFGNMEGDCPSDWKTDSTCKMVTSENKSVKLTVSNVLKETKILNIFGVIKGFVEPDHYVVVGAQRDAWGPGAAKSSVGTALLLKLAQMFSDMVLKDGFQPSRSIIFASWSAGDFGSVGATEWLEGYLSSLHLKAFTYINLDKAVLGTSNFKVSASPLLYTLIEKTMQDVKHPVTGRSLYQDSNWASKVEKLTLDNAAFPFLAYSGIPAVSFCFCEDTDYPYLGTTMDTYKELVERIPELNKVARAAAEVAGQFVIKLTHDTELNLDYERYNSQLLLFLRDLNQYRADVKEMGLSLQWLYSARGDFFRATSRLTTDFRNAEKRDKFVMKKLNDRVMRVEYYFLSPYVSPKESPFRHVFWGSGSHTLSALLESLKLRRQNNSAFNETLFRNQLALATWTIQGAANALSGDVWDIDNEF

[29] = biological target: T7, cyno TfR extracellular domain …; assay: SPR, KD on cyno TfR over KD on human TfR
[30] = biological target: T6, human TfR extracellular domain with …; assay: SPR, Fab
[31] = biological target: T7, cyno TfR extracellular domain …; assay: SPR, Fab
[32] = biological target: T6, human TfR extracellular domain with …; assay: SPR SCK 1:1 fit, IgG
[33] = biological target: T7, cyno TfR extracellular domain …; assay: SPR SCK 1:1 fit, IgG
[34] = biological target: T6, human TfR extracellular domain with …; assay: SPR steady state, IgG
[35] = biological target: T7, cyno TfR extracellular domain …; assay: SPR steady state, IgG
[36] = biological target: T6, human TfR extracellular domain with …; assay: ELISA, IgG;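 note: ELISA of IgG-containing supernatants tested in 1:5 serial dilutions for 1 h, bound antibody read out with HRP anti-kappa antibody and TMB substrate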
[37] = biological target: T7, cyno TfR extracellular domain …; assay: ELISA, IgG;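 note: ELISA of IgG-containing supernatants tested in 1:5 serial dilutions for 1 h, bound antibody read out with HRP anti-kappa antibody and TMB substrate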

T1 sequence (P56818 46-501): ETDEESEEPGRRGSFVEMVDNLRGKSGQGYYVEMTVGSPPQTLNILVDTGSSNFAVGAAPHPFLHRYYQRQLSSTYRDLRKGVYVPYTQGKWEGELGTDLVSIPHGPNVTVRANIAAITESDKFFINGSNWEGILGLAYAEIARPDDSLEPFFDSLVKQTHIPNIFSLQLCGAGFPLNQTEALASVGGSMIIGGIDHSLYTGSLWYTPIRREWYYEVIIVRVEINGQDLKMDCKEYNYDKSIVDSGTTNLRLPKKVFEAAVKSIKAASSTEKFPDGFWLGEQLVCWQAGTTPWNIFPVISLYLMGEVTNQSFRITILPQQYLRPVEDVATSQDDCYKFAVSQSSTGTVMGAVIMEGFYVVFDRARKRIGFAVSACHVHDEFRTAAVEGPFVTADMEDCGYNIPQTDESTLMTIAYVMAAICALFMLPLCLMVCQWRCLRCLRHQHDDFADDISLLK

- IC50, Abeta x-40 in mouse cortical neurons [1]: 1.74 nM
- IC50, Abeta x-40 in mouse cortical neurons (5887*, second run) [1]: 2.53 nM
- maximal % inhibition of Abeta x-40 [1]: 75%
- Kd [2]: 3.58 nM
- % inhibition of BACE1 activity, short FRET substrate (murine BACE1 ECD [3]): -230%
- % inhibition of BACE1 activity, short FRET substrate (human BACE1 ECD [4]): -102%
- Kd (murine BACE1 ECD [5]): 1.4 nM
- Kd (human BACE1 ECD [6]): 1.1 nM
- Kd (murine BACE1 ECD [7]): 1.8 nM
- Kd (human BACE1 ECD [8]): 1.4 nM
- EC50, FRET short substrate [9]: 0.482 nM
- EC50, HTRF long substrate [9]: 5.5 nM
- Kd (murine BACE1 ECD [10]): 2.3 nM
- Kd (human BACE1 ECD [11]): 2.2 nM
- Kd [12]: 7.08 nM
- Kd (murine BACE1 ECD [13]): 0.54 nM
- Kd (human BACE1 ECD [14]): 0.45 nM
B1: 5887 (antibody, V domains shown)
VH: QVQLVQSGAEVKKPGSSVKVSCKASGGTFRGYAISWVRQAPGQGLEWMGNIIPGFGTANYAQKFQGRVTITADESTSTAYMELSSLRSEDTAVYYCARSGGTKYGMLDVWGQGTMVTVSS
VL: EIVMTQSPATLSVSPGERATLSCRASQSVSSNLAWYQQKPGQAPRLLIYGASTRATGIPARFSGSGSGTEFTLTISSLQSEDFAVYYCQQLILWPPRTFGGGTKVEIK
notes: anti-BACE1 IgG

- IC50, Abeta x-40 in mouse cortical neurons [15]: 4.1 nM
- maximal % inhibition of Abeta x-40 [15]: 76%
- Kd [16]: 3.09 nM
- Kd (murine BACE1 ECD [17]): < 0.35 nM
- Kd (human BACE1 ECD [18]): < 0.32 nM
- Kd (murine BACE1 ECD [19]): < 0.32 nM
- Kd (human BACE1 ECD [20]): < 0.26 nM
B2: 6303 (antibody, V domains shown)
VH: B1 VH with F29L, R30S, F64S, K103R
VL: B1 VL with Y49F, I92L, L93T
notes: anti-BACE1 IgG

- IC50, Abeta x-40 in mouse cortical neurons [1]: 2.7 nM
- IC50, Abeta x-40 in mouse cortical neurons (5896*, second run) [1]: 5.72 nM
- maximal % inhibition of Abeta x-40 [1]: 65%
- Kd (murine BACE1 ECD [21]): 2.9 nM
- Kd (human BACE1 ECD [22]): 1.9 nM
- % inhibition of BACE1 activity, short FRET substrate (murine BACE1 ECD [3]): -3%
- % inhibition of BACE1 activity, short FRET substrate (human BACE1 ECD [4]): -4%
- Kd (murine BACE1 ECD [7]): 1 nM
- Kd (human BACE1 ECD [8]): 1.1 nM
- EC50, FRET short substrate [23]: 3.35 nM
- EC50, HTRF long substrate [23]: 3.46 nM
- Kd (murine BACE1 ECD [24]): 3.1 nM
- Kd (human BACE1 ECD [25]): 3 nM
- Kd [12]: 5.18 nM
- Kd [26]: 3.4 nM
- Kd (murine BACE1 ECD [13]): 0.8 nM
- Kd (human BACE1 ECD [14]): 0.71 nM
B3: 5896 (antibody, V domains shown)
VH: QLQLQESGPGLVKPSETLSLTCTVSGGSISSSSYYWGWIRQPPGKGLEWIGSIYRSGSTYYNPSLKSRVTISVDTSKNQFSLKLSSVTAADTAVYYCARVGHGISYFDLWGRGTLVTVSS
VL: EIVLTQSPATLSLSPGERATLSCRASQSVSSYLAWYQQKPGQAPRLLIYDASNRATGIPARFSGSGSGTDFTLTISSLEPEDFAVYYCQQSLTWPPRTFGGGTKVEIK
notes: anti-BACE1 IgG

- IC50, Abeta x-40 in mouse cortical neurons [15]: 0.17 nM
- maximal % inhibition of Abeta x-40 [15]: 71%
- Kd [16]: 1.63 nM
- Kd (murine BACE1 ECD [17]): 0.47 nM
- Kd (human BACE1 ECD [18]): 0.46 nM
- Kd (murine BACE1 ECD [19]): 0.5 nM
- Kd (human BACE1 ECD [20]): 0.44 nM
B4: 6310 (antibody, V domains shown)
VH: B3 VH with S31W, G37S, S58R, S105N
VL: B3 VL with L92V
notes: anti-BACE1 IgG

- koff [27]: 0.000317 s⁻¹
- kon [27]: 910000 M⁻¹ s⁻¹
- koff [28]: 0.00162 s⁻¹
- kon [28]: 378000 M⁻¹ s⁻¹
- Cy/hu ratio [29]: 11
- Kd [30]: 0.4 nM
- Kd [31]: 4.3 nM
B5: hu7A4.v15.Fab (Fab, V domains shown)
VH: EVQLVQSGAEVKKPGASVKVSCKGSGYTFTDYAMHWVRQAPGQGLEWMGGISTYFGRTNYNQKFKGRVTMTVDTSISTAYMELSRLRSDDTAVYYCARGLSGNYVMDYWGQGTTVTVSS
VL: DIVMTQSPDSLAVSLGERATINCRASESVDSYGNSFMHWYQQKPGQPPKLLIYRASNLESGVPDRFSGSGSRTDFTLTISSLQAEDVAVYYCQQSNEAPPTFGQGTKLEIK
notes: Fab

- Kd [32]: 11 nM
- Kd [33]: 22 nM
- Kd [34]: 19 nM
- Kd [35]: 77 nM
- EC50 [36]: 0.017 µg/mL
- EC50 [37]: 0.0822 µg/mL
B6: N99A (antibody, V domains shown)
VH: B5 VH with N103A
VL: B5 VL
notes: also called 7A4.v15 N99A (CDR-H3) IgG; copies: 2 + 2

- Kd [32]: 16 nM
- Kd [33]: 570 nM
- Kd [34]: 41 nM
- Kd [35]: 329 nM
- EC50 [36]: 0.0093 µg/mL
- EC50 [37]: 0.181 µg/mL
B7: Q90A (antibody, V domains shown)
VH: B5 VH
VL: B5 VL with Q94A
notes: also called 7A4.v15 Q90A (CDR-L3) IgG
